Biological target: Class C scavenger receptor of Marsupenaeus japonicus (MjSRC), native protein of hemocytes (Marsupenaeus japonicus (endogenous in hemocytes))
Assay: cross-linking; hemocytes collected 30 min after injection of WSSV or PBS, 5 mM BS3 at 4°C for 1 h in PBS pH 8.0, quenched with Tris-HCl; SDS-PAGE and western blotting with anti-MjSRC sera; oligomer size by molecular mass

Q: How did the stoichiometry N turn out when “Class C scavenger receptor of Marsupenaeus japonicus (MjSRC), native protein of hemocytes (from UniProt A0A1L2DC21 1-692)” was run?
A: Its stoichiometry N is 3.
